Assay [1] has as its target Halo-tagged isopeptide-blocker (Spy0128 β-strand11 mimic) (Streptococcus pyogenes). As to the kind of experiment: pull-down.
In assay [2] the target is Spy0128 polyprotein I91-Spy0128-I91-Spy0128-I91 (not stated | Streptococcus pyogenes). Put plainly: AFM force spectroscopy.

Ends that are not written are not given here.

On to “Spy0128 polyprotein I91-Spy0128-I91-Spy0128-I91”, for which the percent of modified Spy0128 after enrichment on Magne-HaloTag-beads in assay [1] came to 60%.
Turning to MEFTDKDMTITFTNKKDAEEDIRSEDLYFQSDNTTPE (also: Halo-tagged, site not given here) [Halo-tagged isopeptide-blocker (Spy0128 β-strand11 mimic)], in assay [2], the percent of AFM traces with at least one modified Spy0128 was 32.5% and the percent of Spy0128 blocked came out at 21.1%.

(Values after article doi:10.1101/310227.)
